According to patent US20250034594A1, “RNA-GUIDED GENOME RECOMBINEERING AT KILOBASE SCALE” (THE BOARD OF TRUSTEES OF THE LELAND STANFORD JUNIOR …, priority 2021, published 2025):

B1: SSAP_297: SEQ ID NO: 466; Dysgonomonas capnocytophagoides (protein)
chain: STQQVQQQTKPLSLANFLNAPSTANFLKETLAEKKSEFVSNLIALCDADPKLAQCDPAQLMKCAMNATSLNLPLNKNLGYAYVIAYKGVPSFQIGYKGLIQLAIRTGQYKFINATEIREGEIRHNKITGEVIFNGEKPDAPIVGYMSYLELVNGFTASLYMTEEQIEQHALRFSQTYKNDKQYRSSTSKWSDPLARPTMCKKTVLKLLLGTYGLMTTEFAKALDSDSDDEVSTSGHRFEEAEIVQQGEPNEEQSDEPKRMEI
modifications: Dysgonomonas capnocytophagoides
B2: SSAP_149: SEQ ID NO: 318; unclassified Oscillibacter (protein, listed as Oscillibacter sp.)
chain: KEGLIQGTQSAQAAKKGPATMQDYIKKMQGEIAKALPSVLTPERFTRITLSALSTNPKLAQTTPKSFLGAMMTAAQLGMEPNTPLGQAYLIPFKNHGVLECQFQLGYKGLIDLAYRSGEVSTIQAQTVYENDEFEYELGLEPKLHHVPAKGERGEPVYFYAVFRTKDGGYGFEVMSVDDVRTHAKKYSKAYSNGPWQTNFEEMAKKTVLKKALKYAPLKTEFMRGLTSDETIKTEISEDMYSVPDETVIEAEGYEVDGDTGEVIERPADGQ
B3: SSAP_131: SEQ ID NO: 300; Thermoclostridium stercorarium (protein, listed as Thermoclostridium stercorarium)
chain: TTVNQTELKNKLAEKAKTPAKTGNTVFDLIRKMEPEIKRALPKQISPERFARIAMTAVRNTPKLQACEPISFIAALMQSAQLGLEPNTPLGQAYLIPYGKEVQFQLGYQGMLTLAYRTGEYQSIYAMPVYANDEFEYEYGLNEKLVHKPAPDPEGEPIYYYAVYKLKNGGHGFVVMSRQQIERHRDKYSPSAKQGKFSPWNTDFDSMAKKTVLKQLLKYAPKSVEFATQIAQDETIKTEIAEDMTEVQGIEVEYEATDDQENQENQEQED
B4: SSAP_94: SEQ ID NO: 263; Providencia alcalifaciens (protein, listed as Providencia alcalifaciens)
chain: STPPLAKSDLQKTQGTEVKIKTNEQKLVEFINQPGMKAQLAAALPKHITSDRMIRIVSTEIRKTPSLANCDIQSFIGAVVQCSQLGLEPGNALGHAYLLPFGNGKSDNGQQNVQLIIGYRGMIDLARRSGQIISISARTVRQGDNFHFEYGLNENLTHIPEGNEDSPITHVYAVARLKDGGVQFEVMTYNQIEKVRNLSKAGKNGPWVTHWEEMAKKTVIRRLFKYLPVSIEMQKAVILDEKAEANIEQEHSAIFEAEFEEVDSNGN

Tests used:
Type in all cases: cell-based
[1] = system: gene editing with dCas9; test: Screen of 322 new SSAP proteins, gene editing activity with dCas9 (Table 5); parameters: dCas9 with SSAP activity: scale not given here
Method in brief: (§1)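 Synthetic SSAP candidates, identified computationally, were tested in editing screens using both Cas9 and dCas9.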

[2] = system: gene editing with Cas9; test: Screen of 322 new SSAP proteins, gene editing activity with Cas9 (Table 5); parameters: Cas9 with SSAP activity: scale not given here
Method in brief: as §1

[3] = system: gene editing with Cas9 and dCas9; test: Screen of 322 new SSAP proteins, activity across all experiments (Cas9 and dCas9, Table 5); parameters: scale not given here
Method in brief: as §1

Molecule | dCas9 with SSAP activity [1] | dCas9 with SSAP activity (normalized) [1] | Cas9 with SSAP activity [2] | Cas9 with SSAP activity (normalized) [2] | Activity across all experiments [3]
B1 | −7.184 | −1.057 | −5.364 | −1.014 | −6.274
B2 | −6.999 | −1.192 | −1.833 | −2.092 | −4.416
B3 | −7.001 | −0.946 | −1.273 | −0.894 | −4.137
B4 | −7.000 | −1.112 | −0.340 | −0.087 | −3.670
